Publication PMC3711432, “The Fanconi anemia associated protein FAAP24 uses two substrate specific binding surfaces for DNA recognition”

Tests used:
[1] = target: FAAP24 HhH V162A V162A (UniProt Q9BTP7); test: EMSA; details: EMSA: 10 mM Tris pH 7.0, 10 mM NaCl (high salt: 50 mM NaHPO4, 400 mM NaCl), 5% glycerol, 1 mM DTT, 20 ug/ml BSA, on ice, gel at 4 C; NMR: 50 mM NaHPO4 pH 6.5 …
[2] = target: T1, FAAP24 HhH domain (UniProt Q9BTP7 139-215); test: EMSA; 10 mM NaCl; apparent Kd; EMSA: 10 mM Tris pH 7.0, 10 mM NaCl (high salt: 50 mM NaHPO4, 400 mM NaCl), 5% glycerol, 1 mM DTT, 20 ug/ml BSA, on ice, gel at 4 C; NMR: 50 mM NaHPO4 pH 6.5, 100 mM NaCl, 8% D2O, 298 K; details: protein: recombinant, tags: N-terminal His, label: radiolabeled
T1 sequence: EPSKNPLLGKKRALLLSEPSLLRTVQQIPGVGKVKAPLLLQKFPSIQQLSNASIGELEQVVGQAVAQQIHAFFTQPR

[3] = target: T1, FAAP24 HhH domain; test: NMR; 100 mM NaCl; CSPs in N-terminal linker; EMSA: 10 mM Tris pH 7.0, 10 mM NaCl (high salt: 50 mM NaHPO4, 400 mM NaCl), 5% glycerol, 1 mM DTT, 20 ug/ml BSA, on ice, gel at 4 C; NMR: 50 mM NaHPO4 pH 6.5, 100 mM NaCl, 8% D2O, 298 K; details: protein: recombinant; tags: N-terminal His; single strand
[4] = target: T2, FAAP24 full length (UniProt Q9BTP7 1-215); test: NMR; CSPs in hairpin 1, C-terminus and ERCC4-like domain; EMSA: 10 mM Tris pH 7.0, 10 mM NaCl (high salt: 50 mM NaHPO4, 400 mM NaCl), 5% glycerol, 1 mM DTT, 20 ug/ml BSA, on ice, gel at 4 C; NMR: 50 mM NaHPO4 pH 6.5, 100 mM NaCl, 8% D2O, 298 K; details: protein: recombinant; tags: N-terminal His; blunt
T2 sequence: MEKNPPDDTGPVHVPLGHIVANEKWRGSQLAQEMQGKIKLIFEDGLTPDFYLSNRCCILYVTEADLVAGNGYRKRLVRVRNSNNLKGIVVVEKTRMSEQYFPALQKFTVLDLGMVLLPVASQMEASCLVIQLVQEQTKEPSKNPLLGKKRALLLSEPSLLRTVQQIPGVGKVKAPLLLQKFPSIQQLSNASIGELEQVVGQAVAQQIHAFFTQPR

[5] = target: T1, FAAP24 HhH domain; test: NMR; 100 mM NaCl; CSPs in hairpin 1; EMSA: 10 mM Tris pH 7.0, 10 mM NaCl (high salt: 50 mM NaHPO4, 400 mM NaCl), 5% glycerol, 1 mM DTT, 20 ug/ml BSA, on ice, gel at 4 C; NMR: 50 mM NaHPO4 pH 6.5, 100 mM NaCl, 8% D2O, 298 K; details: protein: recombinant; tags: N-terminal His; blunt
[6] = target: T1, FAAP24 HhH domain; test: NMR; 100 mM NaCl; EMSA: 10 mM Tris pH 7.0, 10 mM NaCl (high salt: 50 mM NaHPO4, 400 mM NaCl), 5% glycerol, 1 mM DTT, 20 ug/ml BSA, on ice, gel at 4 C; NMR: 50 mM NaHPO4 pH 6.5, 100 mM NaCl, 8% D2O, 298 K; details: protein: recombinant; tags: N-terminal His; fork: 10 bp, two 20 nt arms
[7] = target: T1, FAAP24 HhH domain; test: NMR; 100 mM NaCl; CSPs comparable with splayed arm; EMSA: 10 mM Tris pH 7.0, 10 mM NaCl (high salt: 50 mM NaHPO4, 400 mM NaCl), 5% glycerol, 1 mM DTT, 20 ug/ml BSA, on ice, gel at 4 C; NMR: 50 mM NaHPO4 pH 6.5, 100 mM NaCl, 8% D2O, 298 K; details: protein: recombinant; tags: N-terminal His; 5' overhang 20 nt
[8] = target: T3, FAAP24 HhH Q205A/Q206A (UniProt Q9BTP7 139-215, Q205A;Q206A); test: EMSA; no significant effect on affinity vs wt; EMSA: 10 mM Tris pH 7.0, 10 mM NaCl (high salt: 50 mM NaHPO4, 400 mM NaCl), 5% glycerol, 1 mM DTT, 20 ug/ml BSA, on ice, gel at 4 C; NMR: 50 mM NaHPO4 pH 6.5, 100 mM NaCl, 8% D2O, 298 K; details: protein: recombinant, tags: N-terminal His, (radiolabeled) in EMSA, bubble: 10 bp stem, 10 unpaired nt
T3 sequence: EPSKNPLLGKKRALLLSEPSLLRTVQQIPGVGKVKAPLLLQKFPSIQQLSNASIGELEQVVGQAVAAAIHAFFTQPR

[9] = target: T4, FAAP24 HhH K171A/K173A (UniProt Q9BTP7 139-215, K171A;K173A); test: EMSA; EMSA: 10 mM Tris pH 7.0, 10 mM NaCl (high salt: 50 mM NaHPO4, 400 mM NaCl), 5% glycerol, 1 mM DTT, 20 ug/ml BSA, on ice, gel at 4 C; NMR: 50 mM NaHPO4 pH 6.5, 100 mM NaCl, 8% D2O, 298 K; details: protein: recombinant, tags: N-terminal His, (radiolabeled) in EMSA, bubble: 10 bp stem, 10 unpaired nt
T4 sequence: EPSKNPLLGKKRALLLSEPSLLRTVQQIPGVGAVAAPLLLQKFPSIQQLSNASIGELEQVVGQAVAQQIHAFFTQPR

[10] = target: T5, FAAP24 HhH K173A (UniProt Q9BTP7 139-215, K173A); test: as above; details: protein: recombinant, tags: N-terminal His, (radiolabeled) in EMSA, bubble: 10 bp stem, 10 unpaired nt
T5 sequence: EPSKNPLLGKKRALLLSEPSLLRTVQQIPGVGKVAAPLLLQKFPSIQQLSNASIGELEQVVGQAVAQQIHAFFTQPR

[11] = target: T6, FAAP24 HhH R161A (UniProt Q9BTP7 139-215, R161A); test: as above; details: protein: recombinant, tags: N-terminal His, (radiolabeled) in EMSA, bubble: 10 bp stem, 10 unpaired nt
T6 sequence: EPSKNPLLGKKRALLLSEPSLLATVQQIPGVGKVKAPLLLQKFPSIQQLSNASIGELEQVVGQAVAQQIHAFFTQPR

[12] = target: T1, FAAP24 HhH domain; test: EMSA; 10 mM NaCl; apparent Kd, multiple complexes; EMSA: 10 mM Tris pH 7.0, 10 mM NaCl (high salt: 50 mM NaHPO4, 400 mM NaCl), 5% glycerol, 1 mM DTT, 20 ug/ml BSA, on ice, gel at 4 C; NMR: 50 mM NaHPO4 pH 6.5, 100 mM NaCl, 8% D2O, 298 K; details: protein: recombinant, tags: N-terminal His, (radiolabeled) in EMSA, bubble: 10 bp stem, 10 unpaired nt

In the case of “GGGCGGCGGGTTTTTTTTTTGGCGGGGCGG / CCGCCCCGCCTTTTTTTTTTCCCGCCGCCC [B10 bubble]”, the binding signal (fold decrease in affinity vs wt) [1] is reported as 2.

TGCGAATTCATATGCAATATTCAGTGGCTGAGCTACTGG (ssDNA) [ss39] gave a Kd ([2]; single strand) of 7.8 ± 0.4 µM.

B1: ds30 (dsDNA)
DNA 1: GGGCGGCGGGTTTTTTTTTTGGCGGGGCGG
DNA 2: CCGCCCCGCCAAAAAAAAAACCCGCCGCCC
Work on B1 yielded a Kd ([2]; blunt) of 9.1 ± 0.9 µM.

TTTTTTTTTTTTTTTTTTTT (ssDNA) [ss20 (dT20)]: binds [3].

B2: ds10 (dsDNA)
DNA 1: GGGCGGCGGG
DNA 2: CCCGCCGCCC
B2: binds [4]; binds [5].

B3: splayed arm with 20 nt arms (mixed)
DNA 1: GGGCGGCGGGCGGATAGATTGAAATCTTAG
DNA 2: GATTCTAAAGTTAGATAGGCCCCGCCGCCC
B3: binds [6].

B4: 5' extension (mixed)
DNA: GATTCTAAAGTTAGATAGGCCCCGCCGCCC
?: GGGCGGCGGG
B4: binds [7].

B5: B10 bubble (mixed)
DNA 1: GGGCGGCGGGTTTTTTTTTTGGCGGGGCGG
DNA 2: CCGCCCCGCCTTTTTTTTTTCCCGCCGCCC
With B5 the binding result [8] was “binds”, the binding signal [9] was 4 fold decrease in affinity vs wt and the binding signal [10] was 3 fold decrease in affinity vs wt. The binding signal [11] was 2 fold decrease in affinity vs wt and the Kd [12] was 1.2 ± 0.2 µM.
